Some results are limits rather than exact numbers.

We go through 49 molecules from patent publication US20170165337A1 (IMMATICS BIOTECHNOLOGIES, published 2017).

The assay has as its target T1, HLA-A*02:01 (human).
T1 construct: MHC class I monomer of the UV-ligand exchange assay; also called peptide-receptive MHC molecules; MHC class I
In words: UV peptide-exchange ELISA. An outline of the steps: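 Peptide-MHC complexes formed by UV-mediated exchange of a UV-cleavable peptide for the test peptide; exchange yield quantified by β2m ELISA. Diluted 100-fold, captured on streptavidin-coated plates 1 h at 37 °C, detected with HRP anti-β2m and TMB at 450 nm against refolded HLA-A*02:01 monomer standards (15-500 ng/ml).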
(In general: In an ELISA, binding on a coated surface is turned into a signal by an enzyme label.)

In turn, LLRDGIELV registered a peptide exchange yield of 50 to 75%.

Take TLLDQLDTQL: the peptide exchange yield was 20 to 50%.

Regarding TILDYINVV, the peptide exchange yield lay in the range of 50 to 75%.

On to VLLFIEHSV, for which the peptide exchange yield fell in the range of 50 to 75%.

In turn, VLGEYSYLL had a peptide exchange yield of 50 to 75%.

As for SLVEAQGWLV, the peptide exchange yield was in the range of 50 to 75%.

As to ILSQPTPSL, the peptide exchange yield is 50 to 75%.

In the case of SLWNAGTSV, the peptide exchange yield fell in the range of 50 to 75%.

VIRNIVEAA registered a peptide exchange yield of 20 to 50%.

As for AVLHLLLSV, the peptide exchange yield was in the range of 20 to 50%.

Take ILEENIPVL: the peptide exchange yield lay in the range of 50 to 75%.

In turn, FLWEEKFNSL had a peptide exchange yield of at least 75%.

ILLNEDDLVTI: the peptide exchange yield is 50 to 75%.

Molecule VLNDGAPNV registered a peptide exchange yield of 50 to 75%.

Regarding FLLEDLSQKL, the peptide exchange yield was in the range of 50 to 75%.

TLLDWQDSL: the peptide exchange yield was 50 to 75%.

YTLDSLYWSV: the peptide exchange yield was in the range of 50 to 75%.

Take FIAPTGHSL: the peptide exchange yield lay within 20 to 50%.

Take ALLQKLQQL: the peptide exchange yield lay within 50 to 75%.

LLFPQIEGIKI yielded a peptide exchange yield of 50 to 75%.

Molecule ILQDLTFVHL registered a peptide exchange yield of 50 to 75%.

Regarding TVLPVPPLSV, the peptide exchange yield was 50 to 75%.

With LAIVPVNTL, the peptide exchange yield is 10 to 20%.

With YMAPEVVEA, the peptide exchange yield fell in the range of 50 to 75%.

YLDDLLPKL registered a peptide exchange yield of 50 to 75%.

With AVLLVLPLV, the peptide exchange yield was in the range of 50 to 75%.

The molecule VLDELPPLI showed a peptide exchange yield of 50 to 75%.

Molecule TLLADDLEIKL gave a peptide exchange yield of 50 to 75%.

Molecule ALDIMIPMV gave a peptide exchange yield of 50 to 75%.

The molecule FLVEPQEDTRL returned a peptide exchange yield of 50 to 75%.

GLAESTGLLAV gave a peptide exchange yield of 50 to 75%.

As for GVATAGCVNEV, the peptide exchange yield was at least 75%.

In the case of ILEEQPMDMLL, the peptide exchange yield was in the range of 50 to 75%.

Turning to LLSAAEPVPA, the peptide exchange yield lay in the range of 20 to 50%.

Consider NLLDDRGMTAL, for which the peptide exchange yield lay within 50 to 75%.

For AASPIITLV, the peptide exchange yield was in the range of 50 to 75%.

Take AVLQAVTAV: the peptide exchange yield is 50 to 75%.

Take IILPVEVEV: the peptide exchange yield was in the range of 50 to 75%.

With ILQPMDIHV, the peptide exchange yield was 50 to 75%.

With AAALIIHHV, the peptide exchange yield fell in the range of 50 to 75%.

Take VMILKLPFL: the peptide exchange yield is 20 to 50%.

In turn, TLTDEQFLV had a peptide exchange yield of 20 to 50%.

The molecule TLLQVFHLL registered a peptide exchange yield of 50 to 75%.

Regarding VLLEYHIAYL, the peptide exchange yield lay in the range of 50 to 75%.

In turn, ILLNPAYDVYL returned a peptide exchange yield of 50 to 75%.

As to SQWEDIHVV, the peptide exchange yield lay in the range of 50 to 75%.

For ALLDQLHTLL, the peptide exchange yield is at least 75%.

Take AVLGLVWLL: the peptide exchange yield lay within 50 to 75%.

Consider SLDDVEGMSV, for which the peptide exchange yield fell in the range of 50 to 75%.
